Data on 14 molecules can be found in patent EP3620472A1 (Sanofi, dated 2020).

Values joined by “and” are separate entries in the source; they are usually repeats but may differ in a detail not shown here. Equal values may be shown once. Read-outs that look alike come from different tables or passages of the source. Some results are limits rather than exact numbers.

Experiment [1] concerns the target T1, glycosylated human PAI-1 (active form) (human, UniProt P05121 24-402, glycosylated (sites not given)). The experiment can be described thus: cell-based or functional assay.
Experiment [2] has as its target T1, glycosylated human PAI-1 (active form). Briefly: Biacore 2000, mAb captured, single-cycle kinetics.
The target in experiment [3] is T2, cynomolgus PAI-1 (cynomolgus (Macaca fascicularis), UniProt P05121 24-402 (human entry)).
T2 construct: produced in-house in E. coli; latent conformation in the crystal; also called cyno PAI-1; cPAI-1
The experiment can be described thus: value used to set up the HDX MS samples.

Experiment [4] addresses T1, glycosylated human PAI-1 (active form). The experiment can be described thus: cell-based or functional assay. This is another data set of the same source.
The target of experiment [5] is T3, endogenous human PAI-1 (human, UniProt P05121 24-402). The experiment can be described thus: cell-based or functional assay.
In experiment [6] the target is T1, glycosylated human PAI-1 (active form). The experiment can be described thus: cell-based or functional assay. This is another data set of the same source.
Experiment [7] has as its target T3, endogenous human PAI-1. Briefly: cell-based or functional assay. The source holds these as a separate data set.
Experiment [8] deals with T4, human PAI-1 (human, UniProt P05121 24-402). The experiment can be described thus: cell-based or functional assay.
Experiment [9] has as its target T2, cynomolgus PAI-1. Briefly: cell-based or functional assay.
Experiment [10] concerns the target T3, endogenous human PAI-1. Briefly: cell-based or functional assay. The source holds these as a separate data set.
Experiment [11] deals with T1, glycosylated human PAI-1 (active form). Briefly: cell-based or functional assay. The source holds these as a separate data set.
Experiment [12] deals with T4, human PAI-1. Briefly: Biacore supernatant screen, graded off-rate.

B1: A44 (antibody, mouse IgG1, V domains shown)
VH: EMQLQESGPSLVKPSQTLSLTCSVTGDSMTNGYWNWIRKFPGNKLEYMGYITYSGSTYYNPSLKGRISITRNTSKNQYYLQLSSVTTEDTATYYCARWHYGSPYYFDYWGQGTTLTVSS
VL: DIKMTQSPSSMYASLGERVTITCKASQDINSYLSWLQQKPGKSPKTLIYRANRSVDGVPSRFSGSGSGQDYSLTISSLEYEDMGIYYCLQYDEFPPTFGGGTKLEIKR
For B1, in experiment [1], the “plasmin generation, IC50abs” value was determined as 3.32 nM and the “plasmin generation, Imax” value turned out to be 97%.

B2: APGv2 (antibody, V domains shown)
VH: QVQLVQSGSELKKPGASVKVSCKASGYSFTDYNMNWVRQAPGQGLEWIGIIHPNSGTTTYNQKFKGRAVLSVDQSVSTAYLQISSLKAEDTAVYYCARSKLRFFDYWGQGTLVTVSS
VL: DIQLTQSPSSLSASVGDRVTITCKASQDIYSYLSWFQQKPGKAPKTLIYRANRLIDGVPSRFSGSGSGQDYTFTISSLQPEDIATYYCLQYDEFPFTFGQGTKLEIK
notes: humanized; also called APG variant 2
Regarding B2, the kon in experiment [2] came out at 6.58e+06 M⁻¹ s⁻¹. In experiment [3], the equilibrium dissociation constant (Kd) is less than 0.05 nM. Moreover, in [4], the “human plasma clot lysis IC50” value was found to be 2.08 nM and the “human plasma clot lysis Imax @ 100 nM” value worked out at 114%. In addition, in [5], the “human plasma, uPA-PAI-1 ELISA IC50abs” value turned out to be 0.962 nM and the “human plasma, uPA-PAI-1 ELISA Imax” value amounted to 94.5%.

B3: APGv4 (antibody, V domains shown)
VH: QVQLVQSGAEVKKPGASVKVSCKASGYSFTDYNMNWVRQAPGQGLEWIGIIHPNSGTTTYNQKFKGRATLTVDQSTSTAYMELSSLRSEDTAVYYCARSKLRFFDYWGQGTLVTVSS
VL: DIQLTQSPSSLSASVGDRVTITCKASQDIYSYLSWFQQKPGKAPKTLIYRANRLIDGVPSRFSGSGSGQDYTFTISSLQPEDIATYYCLQYDEFPFTFGQGTKLEIK
notes: humanized; also called APG variant 4
In turn, B3 gave a kon in experiment [2] of 9.48e+06 M⁻¹ s⁻¹. Moreover, in experiment [4], the “human plasma clot lysis IC50” value amounted to 2.82 nM and the “human plasma clot lysis Imax @ 100 nM” value came to 116%. In addition, in [5], the “human plasma, uPA-PAI-1 ELISA IC50abs” value worked out at 1.28 nM and the “human plasma, uPA-PAI-1 ELISA Imax” value is 94.4%.

B4: C45 (antibody, mouse IgG2b, V domains shown)
VH: QVQLQQSGVELVRPGTSVKVSCKASGYAFTNYLIEWIKQRPGQGLEWIGVIHPGSGVTNYNEKFKGKAILTADKSSSTAYMQLSSLTSDDSAVYFCARDYYGSSHGLMDYWGQGTSVTVSS
VL: DIKMTQSPSSMYASLGERVTITCKASQDINSYLSWFQQKPGKSPKTLIYRANRLVDGVPSRFSGSGSGQDYSLTISSLEYEDMGIYYCLQYDEFPRTFGGGTKLEIK
Regarding B4, in experiment [1], the “plasmin generation, IC50abs” value came to 6.5 nM and the “plasmin generation, Imax” value was found to be 97%.

B5: APG (antibody, V domains shown)
VH: QVKLQESGPELVKPGASVKISCKASGYSFTDYNMNWVKQSKGKSLEWIGIIHPNSGTTTYNQKFKGKATLTVDQSSSTAYLQLNSLTSEDSAVYYCARSKLRFFDYWGQGTTVTVSS
VL: DIKLTQSPSSMYASLGERVTITCKASQDIYSYLSWFQQKPGKSPKTLIYRANRLIDGVPSRFSGSGSGQDYSLTISSLEYEHMGIYYCLQYDEFPFTFGSGTKLEIK
notes: mouse antibody; also called mAPG; mouse APG
Regarding B5, the kon in [2] was determined as 3.82e+06 M⁻¹ s⁻¹. For the same molecule, in experiment [4], the “human plasma clot lysis IC50” value was 2.34 nM and the “human plasma clot lysis Imax @ 100 nM” value came to 123%. In experiment [5], the “human plasma, uPA-PAI-1 ELISA IC50abs” value was 1.81 nM and the “human plasma, uPA-PAI-1 ELISA Imax” value is 89.7%.

B6: A44-hv11 (antibody, V domains shown)
VH: QMTLKESGPTLVKPTQTLSLTCSVSGDSMTNGYWNWIRQFPGKALEYMGYITYSGSTYYNPSLKGRITITRDTSKNQYYLTLSSVTTVDTATYYCARWHYGSPYYFDYWGQGTTLTVSS
VL: DIKMTQSPSSLSASVGDRVTITCKASQDINSYLSWLQQKPGKSPKTLIYRAQRSVEGVPSRFSGSGSGQDYSLTISSLQPEDLGIYYCLQYDEFPPTFGGGTKLEIK
notes: constant regions only as pictures; also called A44V11; A44v11
Take B6: the “human plasma clot lysis IC50” value in experiment [6] worked out at 2 nM. Further, in experiment [7], the “human liver lysate, uPA-PAI-1 ELISA IC50” value was 0.0365 nM and 0.0503 nM and 0.0465 nM; the “human liver lysate, uPA-PAI-1 ELISA IC50, mean” value amounted to 0.0444 nM. Further, in experiment [8], the “uPA-PAI-1 complex ELISA IC50” value was 0.131 nM and the “uPA-PAI-1 complex ELISA Y50%” value was 50.8%. Moreover, in [9], the “Cyno PAI-1 neutralization IC50” value is 0.0424 nM and the “Cyno PAI-1 neutralization Y50%” value worked out at 50.8%. In experiment [10], the “uPA-PAI-1 complex ELISA IC50” value worked out at 0.0157 nM and the “uPA-PAI-1 complex ELISA Y50%” value was found to be 37.5%. In experiment [3], this molecule displayed a Kd of less than 0.05 nM. Moreover, in experiment [4], the “human plasma clot lysis IC50” value was 1.38 nM and the “human plasma clot lysis Imax @ 100 nM” value stood at 113%.

B7: A44-hv13 (antibody, V domains shown)
VH: QMQLQESGPGLVKPSETLSLTCTVSGDSMTNGYWNWIRQPPGKGLEYMGYITYSGSTYYNPSLKSRITISRDTSKNQYSLKLSSVTAADTAVYYCARWHYGSPYYFDYWGQGTLVTVSS
VL: DIKMTQSPSSLSASVGDRVTITCKASQDINSYLSWLQQKPGKSPKTLIYRAQRSVEGVPSRFSGSGSGQDYSLTISSLQPEDLGIYYCLQYDEFPPTFGGGTKLEIK
In the case of B7, in experiment [8], the “uPA-PAI-1 complex ELISA IC50” value turned out to be 0.166 nM and the “uPA-PAI-1 complex ELISA Y50%” value is 52.8%. Moreover, in experiment [9], the “Cyno PAI-1 neutralization IC50” value turned out to be 0.0281 nM and the “Cyno PAI-1 neutralization Y50%” value was determined as 52.8%. Besides, in [10], the “uPA-PAI-1 complex ELISA IC50” value stood at 0.0311 nM and the “uPA-PAI-1 complex ELISA Y50%” value was found to be 61.4%.

B8: A44-hv14 (antibody, V domains shown)
VH: QMQLQESGPGLVKPSETLSLTCTVSGDSMTNGYWNWIRQPPGKGLEYMGYITYSGSTYYNPSLKSRITISRDTSKNQYSLKLSSVTAADTAVYYCARWHYGSPYYFDYWGQGTLVTVSS
VL: DIKMTQSPSSLSASVGDRVTITCKASQDINSYLSWLQQKPGKSPKTLIYRAQRSVEGVPSRFSGSGSGQDYSLTISSLQPEDLATYYCLQYDEFPPTFGGGTKLEIK
Regarding B8, in [8], the “uPA-PAI-1 complex ELISA IC50” value turned out to be 0.0563 nM and the “uPA-PAI-1 complex ELISA Y50%” value is 52.5%. Besides, in [9], the “Cyno PAI-1 neutralization IC50” value is 0.0287 nM and the “Cyno PAI-1 neutralization Y50%” value amounted to 52.5%. Also, in experiment [10], the “uPA-PAI-1 complex ELISA IC50” value came out at 0.0586 nM and the “uPA-PAI-1 complex ELISA Y50%” value worked out at 73.9%.

B9: A44-hv12 (antibody, V domains shown)
VH: QMTLKESGPTLVKPTQTLSLTCSVSGDSMTNGYWNWIRQFPGKALEYMGYITYSGSTYYNPSLKGRITITRDTSKNQYYLTLSSVTTVDTATYYCARWHYGSPYYFDYWGQGTTLTVSS
VL: DIKMTQSPSSLSASVGDRVTITCKASQDINSYLSWLQQKPGKSPKTLIYRAQRSVEGVPSRFSGSGSGQDYSLTISSLQPEDLATYYCLQYDEFPPTFGGGTKLEIK
For the molecule B9, in experiment [8], the “uPA-PAI-1 complex ELISA IC50” value came out at 0.114 nM and the “uPA-PAI-1 complex ELISA Y50%” value is 53.5%. In experiment [9], the “Cyno PAI-1 neutralization IC50” value came out at 0.0266 nM and the “Cyno PAI-1 neutralization Y50%” value came out at 53.5%. Further, in experiment [10], the “uPA-PAI-1 complex ELISA IC50” value came to 0.00335 nM and the “uPA-PAI-1 complex ELISA Y50%” value is 37.7%.

B10: A71 (antibody, mouse IgG1, V domains shown)
VH: QVQLQQSGAELMKPGASVKISCKATGFTFSTYWIEWIKQRPGHGLDWIGEILPGSGNTNYNEKFKGKATFTADTSSNTVYMQLSSLTSEDSAVYYCARGGLYYNLDSWGQGTTLTVSS
VL: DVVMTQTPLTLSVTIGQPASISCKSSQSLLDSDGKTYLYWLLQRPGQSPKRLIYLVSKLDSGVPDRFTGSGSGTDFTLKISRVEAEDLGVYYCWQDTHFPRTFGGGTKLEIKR
As to B10, in experiment [1], the “plasmin generation, IC50abs” value came out at 8.61 nM and the “plasmin generation, Imax” value came out at 90%.

B11: A105 (antibody, mouse IgG1, V domains shown)
VH: QVQLQQSGAELMKPGASVKISCKATGFTFSIYWIEWVKQRPGLGLEWIGEILPGSGSTNYNEKFKGKATFTADTSSNTAFMQLSSLTSEDSAVYYCARGGLYYDLDYWGQGTILTVSS
VL: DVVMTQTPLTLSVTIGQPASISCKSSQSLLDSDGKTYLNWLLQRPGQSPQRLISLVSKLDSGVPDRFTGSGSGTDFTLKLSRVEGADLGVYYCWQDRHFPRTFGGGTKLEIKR
Take B11: in experiment [1], the “plasmin generation, IC50abs” value turned out to be 27 nM and the “plasmin generation, Imax” value was 88%.

B12: E16 (antibody, mouse IgG1, V domains shown)
VH: EVKLVESGGGLVKPGGSLKLSCAASGFTFSNYGMSWVRQTPEKGLGWVASLRTGGNTYYSDSVKGRFTISRDNDRNILYLQMSSLTSEDTAVYYCARGLRHWGYFDVWGAGTTVTVSS
VL: DIVMTQSHKFMSTSVGDRVNITCKASQDVSTAVGWYQQEPGQSPKLLIYSASNRHTGVPDRFTGSGSGTDFTFTISSVQAEDLAVYYCQQHYSSPWTFGGGTKLEIK
With B12, in experiment [1], the “plasmin generation, IC50abs” value is 4.74 nM and the “plasmin generation, Imax” value amounted to 95%.

B13: B28 (antibody, mouse IgG2b, V domains shown)
VH: QVQLQQSGAELMKPGASVKISCKATGYTFSISWIEWIKQRPGGLEWIGKILPGSGGANYNEKFKGKATVTADTSSNTVYMQLSSLTSEDSAVYYCARLSTGTRGAFDYWGQGTTLTVSS
VL: DIQLTQSPASLSASVGATVTITCRASENVYSYLAWYQQKQGKSPQLLVYNAKTLAEGVPSRFSGSGSGTQFSLKINYLQPEDFGSYYCQHHYGTPPTFGGGTKVEIKR
With B13, in experiment [1], the “plasmin generation, IC50abs” value worked out at 7.28 nM and the “plasmin generation, Imax” value is 90%.

B14: B109 (antibody)
chain 1: SGQGLDWIGAIYPGNSDTTYNQKFEDKAKLTAVASASTAYMEVSSLTNEDSAVYYCTRGLRRWGAMDYWGQGTSVTVSS
chain 2: DIVMTQSHKFMSTSAGDRVSIPCKASQDVSSAVAWYQQKLGQSPKLLIYSASFRYTGVPDRFTGSGSGTDFTFTISSVQAEDLAVYYCQQHYSSPYTFGGGTNLEIK
Regarding B14, the “Chromogenic Assays” value in experiment [11] is 0.23 nM. For the same molecule, in experiment [1], the “plasmin generation, IC50abs” value is 6.11 nM and the “plasmin generation, Imax” value is 94%. Moreover, the koff in [12] is not above 0.0001 s⁻¹.

The term kon denotes the second-order rate constant of association. Read a low kon as slow association. Usually Kd stands for the concentration at which binding is half-saturated. In general, koff refers to the rate constant with which the complex falls apart. Higher therefore signals a short-lived complex.
